Experimental data taken from paper PMC9898670, “A solution structure analysis reveals a bent collagen triple helix in the complement activation recognition molecule mannan-binding lectin” (The Journal of Biological Chemistry, 2022).
Non-standard residues stand in square brackets, D forms with d. Hyp = O=C(O)[C@@H]1C[C@@H](O)CN1

B1: MBL-N (MBL native) collagen peptide, Ac-(POG)4-EPGQGLRG-(POG)3-NH2 (peptide)
peptide: Ac-P[Hyp]GP[Hyp]GP[Hyp]GP[Hyp]GEPGQGLRGP[Hyp]GP[Hyp]GP[Hyp]G-NH2
SMILES: CC(=O)N1CCC[C@H]1C(=O)N1C[C@H](O)C[C@H]1C(=O)NCC(=O)N1CCC[C@H]1C(=O)N1C[C@H](O)C[C@H]1C(=O)NCC(=O)N1CCC[C@H]1C(=O)N1C[C@H](O)C[C@H]1C(=O)NCC(=O)N1CCC[C@H]1C(=O)N1C[C@H](O)C[C@H]1C(=O)NCC(=O)N[C@@H](CCC(=O)O)C(=O)N1CCC[C@H]1C(=O)NCC(=O)N[C@@H](CCC(N)=O)C(=O)NCC(=O)N[C@@H](CC(C)C)C(=O)N[C@@H](CCCNC(=N)N)C(=O)NCC(=O)N1CCC[C@H]1C(=O)N1C[C@H](O)C[C@H]1C(=O)NCC(=O)N1CCC[C@H]1C(=O)N1C[C@H](O)C[C@H]1C(=O)NCC(=O)N1CCC[C@H]1C(=O)N1C[C@H](O)C[C@H]1C(=O)NCC(N)=O
notes: (POG)4 written out; (POG)3 written out; Homotrimeric collagen triple helix
B2: MBL-E (MBL EOG) collagen peptide, Ac-(POG)5-EOGQGLRG-(POG)3-NH2 (peptide)
peptide: Ac-P[Hyp]GP[Hyp]GP[Hyp]GP[Hyp]GP[Hyp]GE[Hyp]GQGLRGP[Hyp]GP[Hyp]GP[Hyp]G-NH2
SMILES: CC(=O)N1CCC[C@H]1C(=O)N1C[C@H](O)C[C@H]1C(=O)NCC(=O)N1CCC[C@H]1C(=O)N1C[C@H](O)C[C@H]1C(=O)NCC(=O)N1CCC[C@H]1C(=O)N1C[C@H](O)C[C@H]1C(=O)NCC(=O)N1CCC[C@H]1C(=O)N1C[C@H](O)C[C@H]1C(=O)NCC(=O)N1CCC[C@H]1C(=O)N1C[C@H](O)C[C@H]1C(=O)NCC(=O)N[C@@H](CCC(=O)O)C(=O)N1C[C@H](O)C[C@H]1C(=O)NCC(=O)N[C@@H](CCC(N)=O)C(=O)NCC(=O)N[C@@H](CC(C)C)C(=O)N[C@@H](CCCNC(=N)N)C(=O)NCC(=O)N1CCC[C@H]1C(=O)N1C[C@H](O)C[C@H]1C(=O)NCC(=O)N1CCC[C@H]1C(=O)N1C[C@H](O)C[C@H]1C(=O)NCC(=O)N1CCC[C@H]1C(=O)N1C[C@H](O)C[C@H]1C(=O)NCC(N)=O
notes: (POG)5 written out; (POG)3 written out; Homotrimeric collagen triple helix; form used in AUC, SAXS and SANS; The CD and DSC runs used a form with one POG triplet fewer
B3: T3-785 collagen peptide, Ac-(POG)3-ITGARGLAGPOG-(POG)3-NH2 (peptide)
peptide: Ac-P[Hyp]GP[Hyp]GP[Hyp]GITGARGLAGP[Hyp]GP[Hyp]GP[Hyp]GP[Hyp]G-NH2
SMILES: CC[C@H](C)[C@H](NC(=O)CNC(=O)[C@@H]1C[C@@H](O)CN1C(=O)[C@@H]1CCCN1C(=O)CNC(=O)[C@@H]1C[C@@H](O)CN1C(=O)[C@@H]1CCCN1C(=O)CNC(=O)[C@@H]1C[C@@H](O)CN1C(=O)[C@@H]1CCCN1C(C)=O)C(=O)N[C@H](C(=O)NCC(=O)N[C@@H](C)C(=O)N[C@@H](CCCNC(=N)N)C(=O)NCC(=O)N[C@@H](CC(C)C)C(=O)N[C@@H](C)C(=O)NCC(=O)N1CCC[C@H]1C(=O)N1C[C@H](O)C[C@H]1C(=O)NCC(=O)N1CCC[C@H]1C(=O)N1C[C@H](O)C[C@H]1C(=O)NCC(=O)N1CCC[C@H]1C(=O)N1C[C@H](O)C[C@H]1C(=O)NCC(=O)N1CCC[C@H]1C(=O)N1C[C@H](O)C[C@H]1C(=O)NCC(N)=O)[C@@H](C)O
notes: (POG)3 written out; Homotrimeric collagen triple helix; also called Type III T3-785 peptide
B4: MBL-12 (12 triplets) collagen peptide, Ac-(POG)5-EPGQGLRG-(POG)5-NH2 (peptide)
peptide: Ac-P[Hyp]GP[Hyp]GP[Hyp]GP[Hyp]GP[Hyp]GEPGQGLRGP[Hyp]GP[Hyp]GP[Hyp]GP[Hyp]GP[Hyp]G-NH2
SMILES: CC(=O)N1CCC[C@H]1C(=O)N1C[C@H](O)C[C@H]1C(=O)NCC(=O)N1CCC[C@H]1C(=O)N1C[C@H](O)C[C@H]1C(=O)NCC(=O)N1CCC[C@H]1C(=O)N1C[C@H](O)C[C@H]1C(=O)NCC(=O)N1CCC[C@H]1C(=O)N1C[C@H](O)C[C@H]1C(=O)NCC(=O)N1CCC[C@H]1C(=O)N1C[C@H](O)C[C@H]1C(=O)NCC(=O)N[C@@H](CCC(=O)O)C(=O)N1CCC[C@H]1C(=O)NCC(=O)N[C@@H](CCC(N)=O)C(=O)NCC(=O)N[C@@H](CC(C)C)C(=O)N[C@@H](CCCNC(=N)N)C(=O)NCC(=O)N1CCC[C@H]1C(=O)N1C[C@H](O)C[C@H]1C(=O)NCC(=O)N1CCC[C@H]1C(=O)N1C[C@H](O)C[C@H]1C(=O)NCC(=O)N1CCC[C@H]1C(=O)N1C[C@H](O)C[C@H]1C(=O)NCC(=O)N1CCC[C@H]1C(=O)N1C[C@H](O)C[C@H]1C(=O)NCC(=O)N1CCC[C@H]1C(=O)N1C[C@H](O)C[C@H]1C(=O)NCC(N)=O
notes: (POG)5 written out; Homotrimeric collagen triple helix

Legend:
[1] = target: the molecule itself; assay: circular dichroism; spectra 190-260 nm and melting curves at 226 nm from 0 to 70 °C, average heating rate 0.1 °C/min
[2] = target: the molecule itself; assay: AUC; sedimentation velocity, 50,000 rpm, 20 °C, 137 mM PBS pH 7.4 or 20 mM L-histidine pH 6.0 in H2O (10 peptides, 0.2-2.5 mg/ml) and 20 mM L-histidine in 2H2O (six peptides, 0.75-4 mg/ml); c(s) analysis with SEDFIT; peptides equilibrated for at least 48 h at room temperature to assemble into triple helices

Row | Protein | binding result [1] | binding result [2]
1 | B1 | binds | –
2 | B2 | – | binds
3 | B3 | – | binds
4 | B4 | binds | –
